According to patent publication US20140322218A1 (Amgen, published 2014):
Values belong to the binder of their own block, whether it stands above or below them.

How the values were obtained:
[1] = biological target: T1, caCDH19(1-43)::FLAG::caCDH19(44-87)::rhCDH19(89-114)::caCDH19(115-770), on 293T cells (rhesus macaque/dog chimera); assay: FACS, transfected 293T
T1 construct: also called rh EC1b (dog backbone)
T1 chain: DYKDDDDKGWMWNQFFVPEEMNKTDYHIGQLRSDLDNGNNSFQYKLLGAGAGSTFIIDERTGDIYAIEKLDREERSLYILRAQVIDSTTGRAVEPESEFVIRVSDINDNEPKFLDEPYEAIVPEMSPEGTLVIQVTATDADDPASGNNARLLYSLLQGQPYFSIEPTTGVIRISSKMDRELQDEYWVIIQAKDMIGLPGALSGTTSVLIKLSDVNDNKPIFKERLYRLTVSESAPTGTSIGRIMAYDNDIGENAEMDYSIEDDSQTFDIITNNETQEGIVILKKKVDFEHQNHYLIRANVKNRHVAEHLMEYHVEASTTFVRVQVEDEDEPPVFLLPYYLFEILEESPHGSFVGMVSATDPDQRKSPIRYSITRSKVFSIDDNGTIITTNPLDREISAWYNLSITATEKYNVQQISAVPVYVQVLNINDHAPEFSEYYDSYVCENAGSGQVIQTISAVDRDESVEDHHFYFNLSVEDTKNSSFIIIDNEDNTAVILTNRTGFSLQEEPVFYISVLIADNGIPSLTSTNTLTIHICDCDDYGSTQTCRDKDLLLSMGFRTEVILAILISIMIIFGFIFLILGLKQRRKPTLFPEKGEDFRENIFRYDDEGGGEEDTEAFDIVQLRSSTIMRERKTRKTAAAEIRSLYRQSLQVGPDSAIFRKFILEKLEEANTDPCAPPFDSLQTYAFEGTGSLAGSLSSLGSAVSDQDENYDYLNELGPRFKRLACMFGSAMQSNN
Procedure: (§1) The following binding assay was completed in presence of 2 mM CaCl2. […] Cells were then washed one time and the amount of cell associated Alexa647-labelled Ab was quantitated by flow cytometry. The experiments included mock transfected controls.

[2] = biological target: T2, rhCDH19(1-43)::FLAG::rhCDH19(44-141)::caCDH19(141-770), on 293T cells (rhesus macaque/dog chimera); assay: FACS, transfected 293T
T2 construct: Entry holds leader (1-43), Flag tag and CDH19 part; leader left out; also called rh EC1 (dog backbone)
Procedure: as §1

[3] = biological target: T3, caCDH19(1-42)::FLAG::caCDH19(43-770), on 293T cells (dog); assay: FACS, transfected 293T
T3 construct: also called Ca EC1-5
T3 chain: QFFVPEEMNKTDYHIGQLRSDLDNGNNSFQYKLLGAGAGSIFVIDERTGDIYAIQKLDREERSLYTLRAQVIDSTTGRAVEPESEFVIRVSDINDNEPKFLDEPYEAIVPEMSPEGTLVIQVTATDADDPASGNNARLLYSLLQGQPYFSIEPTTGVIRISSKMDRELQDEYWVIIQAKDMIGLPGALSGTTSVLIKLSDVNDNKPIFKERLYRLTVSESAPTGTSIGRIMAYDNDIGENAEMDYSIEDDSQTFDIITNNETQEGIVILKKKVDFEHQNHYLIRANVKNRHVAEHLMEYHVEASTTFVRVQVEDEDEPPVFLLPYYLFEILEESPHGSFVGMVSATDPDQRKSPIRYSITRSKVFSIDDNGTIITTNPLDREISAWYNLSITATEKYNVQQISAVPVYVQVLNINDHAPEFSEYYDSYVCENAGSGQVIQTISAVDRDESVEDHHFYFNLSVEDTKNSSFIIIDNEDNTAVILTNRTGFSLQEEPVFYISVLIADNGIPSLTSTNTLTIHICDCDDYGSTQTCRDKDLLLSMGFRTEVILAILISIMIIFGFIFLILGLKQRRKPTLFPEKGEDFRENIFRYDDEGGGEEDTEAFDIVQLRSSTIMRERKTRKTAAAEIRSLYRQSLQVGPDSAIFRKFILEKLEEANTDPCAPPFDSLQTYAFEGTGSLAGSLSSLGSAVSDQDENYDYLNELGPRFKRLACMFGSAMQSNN
Procedure: as §1

[4] = biological target: T4, rhCDH19(1-43)::FLAG::rhCDH19(44-65)::caCDH19(65-770), on 293T cells (rhesus macaque/dog chimera); assay: FACS, transfected 293T
T4 construct: Entry holds leader (1-43), Flag tag and CDH19 part; leader left out; also called rh EC1a (dog backbone)
Procedure: as §1

[5] = biological target: T5, muCDH19(44-247)::huCDH19(250-364)::muCDH19(363-770), Flag-tagged, on 293T cells (human/mouse chimera); assay: FACS, transfected 293T
T5 construct: also called Hu EC3; C137911
Source text: The experiment included assaying the anti-CDH19 antibodies against mouse Cadherin19 to determine suitability for binning on these human/mouse chimeras.

[6] = biological target: T6, Human Cadherin-19 (human, UniProt Q9H159 44-772); assay: FACS, endogenous and recombinant human CDH19
T6 construct: Residues 1-43 are named as the native leader in the construct designations and are left out; also called human CDH19; huCDH19
Procedure: FACS binding assays were performed to evaluate the binding of the anti-Cadherin-19 receptor specific antibodies to endogenous Cadherin-19 receptor expressed on the CHL-1 tumor cell lines.
FACs assays were performed by incubating hybridoma supernatants with 10,000 to 25,000 cells in PBS/2% Fetal bovine serum/2 mM Calcium Chloride at 4° C. for one hour followed by two washes with PBS/2% Fetal bovine serum/2 mM Calcium Chloride. Cells were then treated with florochrome-labeled secondary antibodies at 4° C. followed by one wash. The cells were resuspended in 50 μl of PBS/2% FBS and antibody binding was analyzed using a FACSCalibur™ instrument.

[7] = biological target: T7, muCDH19(1-43)::FLAG::muCDH19(44-770)::huCDH19(271), on 293T cells (mouse/human chimera); assay: FACS, transfected 293T
T7 construct: Entry holds leader (1-43), Flag tag and CDH19 part; leader left out; also called Hu EC3a
T7 chain: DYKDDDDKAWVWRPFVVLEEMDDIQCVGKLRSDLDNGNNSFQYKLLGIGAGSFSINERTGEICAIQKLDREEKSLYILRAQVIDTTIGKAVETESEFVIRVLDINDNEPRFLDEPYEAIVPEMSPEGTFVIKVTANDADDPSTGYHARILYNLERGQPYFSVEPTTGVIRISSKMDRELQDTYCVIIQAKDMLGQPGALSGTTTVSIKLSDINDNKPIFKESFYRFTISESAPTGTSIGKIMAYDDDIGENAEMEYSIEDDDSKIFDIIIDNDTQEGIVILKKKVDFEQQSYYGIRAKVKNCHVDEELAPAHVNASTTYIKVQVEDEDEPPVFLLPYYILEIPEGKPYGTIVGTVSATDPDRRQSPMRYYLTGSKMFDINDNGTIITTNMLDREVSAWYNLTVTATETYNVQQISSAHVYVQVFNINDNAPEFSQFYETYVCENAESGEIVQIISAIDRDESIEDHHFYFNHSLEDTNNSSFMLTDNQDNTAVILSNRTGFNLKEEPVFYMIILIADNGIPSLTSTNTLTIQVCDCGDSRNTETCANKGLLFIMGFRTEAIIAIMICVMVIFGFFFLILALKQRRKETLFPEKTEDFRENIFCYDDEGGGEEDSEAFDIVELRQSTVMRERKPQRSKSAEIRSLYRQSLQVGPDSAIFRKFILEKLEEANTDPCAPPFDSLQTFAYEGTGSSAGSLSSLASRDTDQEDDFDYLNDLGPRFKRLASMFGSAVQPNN

B1: hu anti-<huCDH19> 26D1.1 VH::huIgG1z / 26D1.1 VL::huLLC-C2 (Ab ID 13882) (antibody, V domains shown)
VH: QVQLVQSGAEVKKPGASVKVSCKASRYTFTSYYMSWVRQAPGQGLEWMGIIHPSGGDTTYAQKFQGRVTMTGDTSTSTVYMELSSLRSEDTAVYYCARGGIKLWLHFDYWGQGTLVTVSS
VL: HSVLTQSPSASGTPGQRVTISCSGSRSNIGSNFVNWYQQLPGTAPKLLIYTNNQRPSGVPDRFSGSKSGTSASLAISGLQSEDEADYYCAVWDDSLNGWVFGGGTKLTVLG
binding result [1]: binds | binding result [2]: binds | binding result [3]: no binding (tested: 5 ug/ml) | binding result [4]: binds

B2: anti-CDH19 antibody 2G6 (Ab ID 13588) (antibody, human IgG1, lambda, V domains shown)
VH: QVQLVESGGGVVQPGRSLRLSCAASGFTFSSYGMHWVRQAPGKGLEWVAFIWYDGSNKYYADSVKDRFTISRDNSKNTLYLQMKSLRAEDTAVYYCARRAGIIGTIGYYYGMDVWGQGTTVTVSS
VL: SYELTQPPSVSVSPGQTASITCSGDRLGEKYTCWYQQRPGQSPLLVIYQDTKRPSGIPERFSGSNSGNTATLTISGTQAMDEADYYCQAWDSSTVVFGGGTKLTVLG
binding result [5]: binds | binding result [6]: binds | binding result [7]: binds

Second part, the binder after the results:

binding result [5]: binds | binding result [6]: binds | binding result [7]: no binding (tested: 5 ug/ml)
B3: hu anti-<huCDH19> 4B10 VH::huIgG1z / 4B10 VL::huKLC (Ab ID 13590) (antibody, V domains shown)
VH: QVQLVESGGGVVQPGRSLRLSCAASGFTFSSYDMHWVRQAPGKGLEWVAVISYDGTNEYYADSVKGRFTISRDTSKNTLYLQMNSLRAEDTAVYYCARERYFDWSFDYWGQGTLVSVSS
VL: EIVLTQSPGTLSLSPGERATLSCRASQSVSNTYLAWYHQRPGQAPRLLIYGASSRATGIPDRFSGSGSGTDFALTISSLEPEDFAVYYCQQYSNSWTFGQGTKVEIKR

binding result [1]: no binding (tested: 5 ug/ml) | binding result [2]: binds | binding result [3]: no binding (tested: 5 ug/ml) | binding result [4]: no binding (tested: 5 ug/ml)
B4: hu anti-<huCDH19> 4A9 VH::huIgG1z / 4A9 VL::huLLC-C1 (Ab ID 13589) (antibody, V domains shown)
VH: QVQLQESGPGLVKPSETLSLTCTVSGGSISGYYWSWIRQPPGKGLEWFAYFSYSGSTNYNPSLKSRVTLSVDTSKNQFSLKLSSVTAADTAVYYCARNWAFHFDFWGQGTLVTVSS
VL: QSVLTQPPSVSGAPGQRVTISCTGSSSNIGTGYAVHWYQQFPGTAPKLLIYGNNNRPSGVPDRFSGSKSGTSASLAITGLQAEDEADYYCQSYDSRLSGWVFGGGTKLTVLG
notes: Recombinant fully human IgG1
